Results taken from US20250215058A1 (CHILDREN S MEDICAL CENTER, published 2025).

B1: HLA-B (full length, FLAG-tagged, expressed in HEK293 cells) (receptor)
MHC heavy: GSHSMRYFYTSVSRPGRGEPRFISVGYVDDTQFVRFDSDAASPREEPRAPWIEQEGPEYWDRNTQIYKAQAQTDRESLRNLRGYYNQSEAGSHTLQSMYGCDVGPDGRLLRGHDQYAYDGKDYIALNEDLRSWTAADTAAQITQRKWEAAREAEQRRAYLEGECVEWLRRYLENGKDKLERADPPKTHVTHHPISDHEATLRCWALGFYPAEITLTWQRDGEDQTQDTELVETRPAGDRTFQKWAAVVVPSGEEQRYTCHVQHEGLPKPLTLRWEPSSQSTVPIVGIVAGLAVLAVVVIGAVVAAVMCRRKSSGGKGGSYSQAACSDSAQGSDVSLTAEFGSGSGS
notes: also called HLA-B alone; not shown: triple-FLAG tag
B2: HLA-A (full length, 3× FLAG tagged, expressed in HEK293 cells) (receptor)
MHC heavy: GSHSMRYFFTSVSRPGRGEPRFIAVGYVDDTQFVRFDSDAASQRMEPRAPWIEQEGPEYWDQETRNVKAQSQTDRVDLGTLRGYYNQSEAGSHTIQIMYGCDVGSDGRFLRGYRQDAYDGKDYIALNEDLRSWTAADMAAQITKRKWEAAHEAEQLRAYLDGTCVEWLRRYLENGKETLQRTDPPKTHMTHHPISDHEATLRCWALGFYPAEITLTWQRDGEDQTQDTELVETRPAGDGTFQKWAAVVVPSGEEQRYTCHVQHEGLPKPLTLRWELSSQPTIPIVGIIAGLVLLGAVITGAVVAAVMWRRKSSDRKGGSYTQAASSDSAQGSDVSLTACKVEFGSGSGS
notes: also called HLA-A alone; not shown: triple-FLAG tag
B3: HLA-C (full length, FLAG-tagged, expressed in HEK293 cells) (receptor)
MHC heavy: CSHSMRYFDTAVSRPGRGEPRFISVGYVDDTQFVRFDSDAASPRGEPRAPWVEQEGPEYWDRETQKYKRQAQADRVSLRNLRGYYNQSEDGSHTLQRMSGCDLGPDGRLLRGYDQSAYDGKDYIALNEDLRSWTAADTAAQITQRKLEAARAAEQLRAYLEGTCVEWLRRYLENGKETLQRAEPPKTHVTHHPLSDHEATLRCWALGFYPAEITLTWQRDGEDQTQDTELVETRPAGDGTFQKWAAVVVPSGQEQRYTCHMQHEGLQEPLTLSWEPSSQPTIPIMGIVAGLAVLVVLAVLGAVVTAMMCRRKSSGGKGGSCSQAACSNSAQGSDESLITCKAEFGSGSGS
notes: also called HLA-C alone; not shown: triple-FLAG tag

molecular target: GST-Epx2 (E. faecium, UniProt P08515 1-218 = GST); assay: GST pull-down from lysates of transfected HEK293 cells, anti-FLAG immunoblot
Sequence (P08515 1-218, tags or fused parts left off): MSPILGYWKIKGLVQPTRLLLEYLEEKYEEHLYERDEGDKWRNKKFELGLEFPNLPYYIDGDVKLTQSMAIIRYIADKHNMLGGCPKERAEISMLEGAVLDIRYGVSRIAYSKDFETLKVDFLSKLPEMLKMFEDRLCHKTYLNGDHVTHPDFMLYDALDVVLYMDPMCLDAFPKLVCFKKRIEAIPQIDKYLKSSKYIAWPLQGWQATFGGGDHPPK

Row | Binder | binding result
1 | B1 | no binding
2 | B2 | no binding
3 | B3 | no binding

molecular target: GST-Epx3 (E. faecalis, UniProt P08515 1-218 = GST); assay: as above
Sequence (P08515 1-218, tags or fused parts left off): as above

Row | Binder | binding result
4 | B1 | no binding
5 | B2 | no binding
6 | B3 | no binding
